Substitutions are numbered along the chain they refer to.
T1: IL-2Rβ and IL-2Rγ on Ba/F3 cells engineered to express murine IL-2Rβ (murine, UniProt P16297 27-539; P34902 23-369)
T1 sequence (looked up) 1: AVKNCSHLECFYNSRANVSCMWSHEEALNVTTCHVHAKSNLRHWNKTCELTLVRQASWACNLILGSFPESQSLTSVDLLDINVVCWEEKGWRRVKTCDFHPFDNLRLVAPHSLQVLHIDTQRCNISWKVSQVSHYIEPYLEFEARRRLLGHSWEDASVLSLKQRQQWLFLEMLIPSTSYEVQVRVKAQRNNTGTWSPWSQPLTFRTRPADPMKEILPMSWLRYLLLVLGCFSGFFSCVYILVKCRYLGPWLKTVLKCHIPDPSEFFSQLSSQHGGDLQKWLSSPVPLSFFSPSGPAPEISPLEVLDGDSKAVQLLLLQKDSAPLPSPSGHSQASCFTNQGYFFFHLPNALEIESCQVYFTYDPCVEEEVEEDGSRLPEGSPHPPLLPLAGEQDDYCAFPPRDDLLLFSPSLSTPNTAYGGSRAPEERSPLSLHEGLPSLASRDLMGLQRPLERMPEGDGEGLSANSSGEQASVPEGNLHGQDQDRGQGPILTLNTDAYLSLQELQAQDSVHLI
T1 sequence (looked up) 2: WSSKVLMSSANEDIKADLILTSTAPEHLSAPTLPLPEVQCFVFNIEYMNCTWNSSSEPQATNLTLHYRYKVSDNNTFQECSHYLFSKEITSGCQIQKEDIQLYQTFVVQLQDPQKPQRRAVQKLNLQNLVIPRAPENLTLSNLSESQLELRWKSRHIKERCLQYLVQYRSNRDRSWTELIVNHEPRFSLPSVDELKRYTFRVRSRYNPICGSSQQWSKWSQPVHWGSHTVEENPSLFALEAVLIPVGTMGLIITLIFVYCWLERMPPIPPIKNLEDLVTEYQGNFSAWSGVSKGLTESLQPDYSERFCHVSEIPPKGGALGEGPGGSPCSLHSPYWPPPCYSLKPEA

T2: trimeric murine IL-2 receptor (IL-2Rα, IL-2Rβ, and IL-2Rγ) on CTLL-2 cells (murine, UniProt P01590 22-268; P16297 27-539; P34902 23-369)
T2 sequence (looked up) 1: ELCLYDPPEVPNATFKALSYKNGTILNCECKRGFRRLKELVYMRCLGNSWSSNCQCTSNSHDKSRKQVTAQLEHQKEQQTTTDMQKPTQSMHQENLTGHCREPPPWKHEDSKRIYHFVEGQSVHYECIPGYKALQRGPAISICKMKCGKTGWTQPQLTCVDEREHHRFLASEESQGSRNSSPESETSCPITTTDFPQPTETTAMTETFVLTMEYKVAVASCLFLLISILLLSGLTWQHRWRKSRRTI
T2 sequence (looked up) 2: T1 sequence (looked up) 1
T2 sequence (looked up) 3: T1 sequence (looked up) 2

T3: IL-2Rαβγ on KHYG-1 cells (human NK leukemia cell line that expresses IL-2Rα, β, and γ) (human, UniProt P01589 22-272; P14784 27-551; P31785 23-369)
T3 sequence (looked up) 1: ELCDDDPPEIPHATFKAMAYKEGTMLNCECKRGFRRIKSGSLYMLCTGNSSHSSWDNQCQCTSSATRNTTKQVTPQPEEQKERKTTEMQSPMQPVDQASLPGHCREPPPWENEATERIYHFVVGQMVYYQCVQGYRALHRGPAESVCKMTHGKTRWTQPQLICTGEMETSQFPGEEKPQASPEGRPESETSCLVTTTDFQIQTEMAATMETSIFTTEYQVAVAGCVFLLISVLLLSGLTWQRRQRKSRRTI
T3 sequence (looked up) 2: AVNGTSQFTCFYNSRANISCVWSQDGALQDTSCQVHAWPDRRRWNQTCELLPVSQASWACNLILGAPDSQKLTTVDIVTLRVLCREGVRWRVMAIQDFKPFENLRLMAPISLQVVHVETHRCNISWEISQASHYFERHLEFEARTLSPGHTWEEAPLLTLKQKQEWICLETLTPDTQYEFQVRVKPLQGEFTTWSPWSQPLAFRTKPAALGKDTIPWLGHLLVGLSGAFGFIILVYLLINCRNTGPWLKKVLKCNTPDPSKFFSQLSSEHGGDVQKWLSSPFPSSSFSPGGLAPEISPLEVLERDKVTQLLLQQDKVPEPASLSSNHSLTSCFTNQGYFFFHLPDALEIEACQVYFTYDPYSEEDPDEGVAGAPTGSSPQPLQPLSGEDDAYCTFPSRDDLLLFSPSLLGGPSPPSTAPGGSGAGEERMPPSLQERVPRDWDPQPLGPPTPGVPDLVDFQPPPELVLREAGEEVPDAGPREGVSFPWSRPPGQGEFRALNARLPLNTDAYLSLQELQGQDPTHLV
T3 sequence (looked up) 3: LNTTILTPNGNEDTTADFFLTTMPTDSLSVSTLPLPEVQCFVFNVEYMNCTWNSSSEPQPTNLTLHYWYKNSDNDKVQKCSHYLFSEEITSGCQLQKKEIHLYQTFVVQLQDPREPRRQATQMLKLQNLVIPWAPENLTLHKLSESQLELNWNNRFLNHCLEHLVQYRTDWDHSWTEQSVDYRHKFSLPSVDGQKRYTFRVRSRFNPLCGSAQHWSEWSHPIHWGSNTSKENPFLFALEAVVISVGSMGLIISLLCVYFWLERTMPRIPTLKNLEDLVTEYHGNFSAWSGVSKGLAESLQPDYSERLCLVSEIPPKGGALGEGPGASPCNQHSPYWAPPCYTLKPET

T4: IL-2Rα (recombinant IL-2 receptor α, R&D Systems Cat #: 223-2A/CF), biotinylated (human, UniProt P01589 22-213, limits assumed, biotinylated using sulfo-NHS-LC-LC-Biotin)
T4 construct: Bought reagent; also used here as the IL-2Rα partner of the in-silico analysis of PDB 2B5I (another construct); also called IL-2RA; CD25
T4 sequence (looked up): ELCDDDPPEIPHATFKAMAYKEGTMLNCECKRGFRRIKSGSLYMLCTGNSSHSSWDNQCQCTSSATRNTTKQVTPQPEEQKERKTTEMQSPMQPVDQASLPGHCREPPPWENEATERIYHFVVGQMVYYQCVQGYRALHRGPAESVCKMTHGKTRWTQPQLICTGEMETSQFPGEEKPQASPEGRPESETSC

B1: mouse surrogate Fc-IL-2 heterodimer 165.250 (IL2v_C140A), native IL-2Rα binding interface (Fc fusion)
chain 1: GPTIKPCPPCKCPAPNAAGGPSVFIFPPKIKDVLMISLSPIVTCVVVDVSEDDPDVQISWFVNNVEVHTAQTQTHREDYNSTLRVVSALPIQHQDWMSGKEFKCKVNNKDLGAPIERTISKPKGSVRAPQVYVLPPPEEEMTKKQVTLWCMVTDFMPEDIYVEWTNNGKTELNYKNTEPVLDSDGSYFMYSKLRVEKKNWVERNSYSCSVVHEGLHNHHTTKSFSRTPGGGGGSGGGGSGGGGSGGGGSQQQHLEQLLMDLQELLSRMENYRNLKLPRMLTFKFYLPKQATELKDLQCLEDELGPLRHVLDLTQSKSFQLEDAENFISNIRVTVVKLKGSDNTFECQFDDESATVVDFLRRWIAFAQSIISTSPQ
chain 2: GPTIKPCPPCKCPAPNAAGGPSVFIFPPKIKDVLMISLSPIVTCVVVDVSEDDPDVQISWFVNNVEVHTAQTQTHREDYNSTLRVVSALPIQHQDWMSGKEFKCKVNNKDLGAPIERTISKPKGSVRAPQVYVLPPPEEEMTKKQVTLSCAVTDFMPEDIYVEWTNNGKTELNYKNTEPVLDSDGSYFMVSKLRVEKKNWVERNSYSCSVVHEGLHNHHTTKSFSRTPGK
B2: mouse surrogate Fc-IL-2v heterodimer 167.250 (IL2v_F56A_C140A) (Fc fusion)
chain 1: B1 chain 1 with F282A
chain 2: B1 chain 2
B3: mouse surrogate Fc-IL-2v heterodimer 168.250 (IL2v_F56A_E76A_C140A) (Fc fusion)
chain 1: B1 chain 1 with F282A, E302A
chain 2: B1 chain 2
B4: mouse surrogate Fc-IL-2v heterodimer 166.250 (IL2v_F56A_Y59A_L86G_C140A) (Fc fusion)
chain 1: B1 chain 1 with F282A, Y285A, L312G
chain 2: B1 chain 2
B5: mouse surrogate Fc-IL-2v heterodimer 171.250 (IL2v_R52G_F56A_E76A_C140A) (Fc fusion)
chain 1: B1 chain 1 with R278G, F282A, E302A
chain 2: B1 chain 2
B6: Fc-IL-2v heterodimer 107.46 (hIL-2v_Δ1-5_F42A_E62A_C125S) (Fc fusion)
chain 1: ESKYGPPCPPCPAPEAAGGPSVFLFPPKPKDTLMISRTPEVTCVVVDVSQEDPEVQFNWYVDGVEVHNAKTKPREEQFNSTYRVVSVLTVLHQDWLNGKEYKCKVSNKGLPSSIEKTISKAKGQPREPQVYTLPPSQEEMTKNQVSLWCLVKGFYPSDIAVEWESNGQPENNYKTTPPVLDSDGSFFLYSRLTVDKSRWQEGNVFSCSVMHEALHNHYTQKSLSLSLGGGGGSGGGGSGGGGSGGGGSSTKKTQLQLEHLLLDLQMILNGINNYKNPKLTRMLTAKFYMPKKATELKHLQCLEEALKPLEEVLNLAQSKNFHLRPRDLISNINVIVLELKGSETTFMCEYADETATIVEFLNRWITFSQSIISTLT
chain 2: ESKYGPPCPPCPAPEAAGGPSVFLFPPKPKDTLMISRTPEVTCVVVDVSQEDPEVQFNWYVDGVEVHNAKTKPREEQFNSTYRVVSVLTVLHQDWLNGKEYKCKVSNKGLPSSIEKTISKAKGQPREPQVYTLPPSQEEMTKNQVSLSCAVKGFYPSDIAVEWESNGQPENNYKTTPPVLDSDGSFFLVSRLTVDKSRWQEGNVFSCSVMHEALHNRFTQKSLSLSLGK
notes: hIgG4 knob-in-hole Fc heterodimer, one IL-2v on the knob chain
B7: Fc-IL-2v heterodimer 113.46 (hIL-2v_Δ1-5_R38G_E62A_C125S) (Fc fusion)
chain 1: B6 chain 1 with R281G, A285F
chain 2: B6 chain 2
notes: as for B6
B8: Fc-IL-2v heterodimer 114.46 (hIL-2v_Δ1-5_R38G_F42A_E62A_C125S) (Fc fusion)
chain 1: B6 chain 1 with R281G
chain 2: B6 chain 2
notes: as for B6
B9: Fc-IL-2v heterodimer 108.46 (hIL-2v_Δ1-5_F42A_Y45G_E62A_C125S) (Fc fusion)
chain 1: B6 chain 1 with Y288G
chain 2: B6 chain 2
notes: as for B6

Assays:
[1] = target: T1, IL-2Rβ and IL-2Rγ on Ba/F3 cells …; experiment: cell-based or functional assay
[2] = target: T2, trimeric murine IL-2 receptor (IL-2Rα, …); experiment: cell-based or functional assay
[3] = target: T3, IL-2Rαβγ on KHYG-1 cells (human NK …); experiment: cell-based or functional assay
[4] = target: T2, trimeric murine IL-2 receptor (IL-2Rα, …); experiment: cell-based or functional assay; remark: listed apart in the source
[5] = target: T4, IL-2Rα (recombinant IL-2 receptor α, …); experiment: SPR (Biacore), CM4 chip, biotinylated receptor on neutravidin
[6] = target: T5, IL-2Rβγ heterodimer, custom biotinylated Fc fusion protein (human IL-2Rβ 27-240-Fc-FLAG / human IL-2Rγ … (human, site-specific biotinylation at the AviTag)); experiment: as above
T5 construct: Extracellular regions fused to IgG1 knob-in-hole Fc subunits with tags; also called IL-2 receptor βγ heterodimer; Fc-IL-2Rβγ

Row | Binder | Proliferation EC50, Ba/F3 cells [1] [nM] | pSTAT5 EC50, STAT5 activation of CTLL-2 cells [2] | Proliferation of KHYG-1 NK cells, EC50 [3] [nM] | STAT5 activation of CTLL-2 cells, EC50 [4] [nM] | Kd [5] [nM] | Kd [6] [nM]
1 | B1 | 4.1 | 2 pM | – | – | – | –
2 | B2 | 5.2 | 0.12 nM | – | – | – | –
3 | B3 | 20.6 | 63.1 nM | – | – | – | –
4 | B4 | 9.5 | 5.4 nM | – | – | – | –
5 | B5 | 13 | 88.7 nM | – | – | – | –
6 | B6 | – | – | 0.235 | 25.5 | > 60000 | 0.069
7 | B7 | – | – | 0.344 | 3.1 | – | 0.072
8 | B8 | – | – | 0.336 | 61.2 | > 60000 | 0.076
9 | B9 | – | – | 0.191 | 41.4 | – | 0.062

Reference: patent publication US20240269235A1 (Gilead, published 2024)
